In publication PMC8187860, “Substitution of a Surface-Exposed Residue Involved in an Allosteric Network Enhances Tryptophan Synthase Function in Cells” (Frontiers in Molecular Biosciences, 2021):
Numbering of substitutions follows the chain as printed. Names may count otherwise.

What was measured:
[1] = target: T1, Escherichia coli tryptophan synthase alpha subunit (αTS), A198W variant (E. coli, UniProt P0A877 1-268, A198W); assay: ITC
T1 sequence: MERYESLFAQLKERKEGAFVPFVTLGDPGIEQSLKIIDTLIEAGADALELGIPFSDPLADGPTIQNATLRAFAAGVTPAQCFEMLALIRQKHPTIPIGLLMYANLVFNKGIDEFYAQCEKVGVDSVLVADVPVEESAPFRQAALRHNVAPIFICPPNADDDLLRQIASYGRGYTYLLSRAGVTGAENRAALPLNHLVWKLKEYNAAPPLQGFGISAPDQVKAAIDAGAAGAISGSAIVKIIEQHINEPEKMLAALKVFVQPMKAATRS

[2] = target: T2, Escherichia coli tryptophan synthase beta subunit (βTS) (E. coli, UniProt P0A879 1-397); assay: ITC; αTS subunit (WT or A198W) binding to the βTS subunit; which protein was titrated, buffer and temperature are not told in the main text (Supplementary Figure 5); conditions: both partners purified
T2 construct: tryptophan synthase beta subunit (βTS), E. coli; No removal of the hexahistidine tag is mentioned; also called beta subunit of TS; source: E. coli BL21 (DE3*), purified (Ni-NTA, S200 size exclusion)
T2 sequence (looked up): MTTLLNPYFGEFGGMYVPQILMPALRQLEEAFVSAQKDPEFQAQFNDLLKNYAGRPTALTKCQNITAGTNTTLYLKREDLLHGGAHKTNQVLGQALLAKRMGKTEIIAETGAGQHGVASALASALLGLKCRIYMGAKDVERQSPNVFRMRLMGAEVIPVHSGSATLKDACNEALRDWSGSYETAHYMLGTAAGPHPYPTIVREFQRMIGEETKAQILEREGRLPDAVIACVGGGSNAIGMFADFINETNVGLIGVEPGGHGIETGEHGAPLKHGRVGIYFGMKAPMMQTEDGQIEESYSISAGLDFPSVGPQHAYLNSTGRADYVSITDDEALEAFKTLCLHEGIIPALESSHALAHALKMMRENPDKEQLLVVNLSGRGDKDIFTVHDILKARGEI

[3] = target: T2, Escherichia coli tryptophan synthase …; assay: cell-based or functional assay

B1: Escherichia coli tryptophan synthase beta subunit (βTS) (enzyme)
chain: T2 sequence (looked up)
B1 was tested. Which Kd [1] did it give?
The Kd was 28 nM.

B2: Escherichia coli tryptophan synthase alpha subunit (αTS), wild type (enzyme, E. coli, UniProt P0A877 1-268, looked up)
chain: T1 sequence with W198A
notes: tryptophan synthase alpha subunit (αTS, product of trpA), E. coli; Axe et al., 2014) for the construct and its purification; also called WT αTS; WT; source: E. coli BL21 (DE3*), purified as previously (Axe and Boehr, 2013; Axe et al., 2014; O'Rourke et al., 2019
With B2 as the binder, how does the Kd [2] read?
The Kd was ~25 nM.

B3: Escherichia coli tryptophan synthase alpha subunit (αTS), A198W variant (enzyme, E. coli, UniProt P0A877 1-268, looked up)
chain: T1 sequence
notes: tryptophan synthase alpha subunit (αTS, product of trpA), E. coli, with the substitution A198W; Made by QuikChange site-directed mutagenesis of the wild-type αTS plasmid; also called A198W αTS; source: E. coli BL21 (DE3*), purified as previously (Axe and Boehr, 2013; Axe et al., 2014; O'Rourke et al., 2019)
How did the “kcat/KM of the full TS complex reaction (production of tryptophan from IGP, 290 nm; 50 µM α2β2 TS complex)” value [3] turn out when B3 was run?
The value was 9900 M⁻¹ s⁻¹.

What about the “kcat/KM of the βTS assay in the presence of αTS (production of tryptophan from indole, 290 nm; 0.5 µM α2β2 TS complex)” value [3] of the same binder?
Its value is 190000 M⁻¹ s⁻¹.

What about the Kd [2] of the same binder?
The Kd was ~25 nM.
